Substrate in the data set: CC(=O)Oc1ccc([N+](=O)[O-])cc1
The data set is described as follows: purified protein. The data set is classed as biochemical, Exiguobacterium antarcticum. To be noted: optimal conditions (optimal pH 7.0), free enzyme.

The term Km denotes the substrate concentration at which the rate is half of its maximum.

B1: EaEst2 (Exiguobacterium antarcticum) (protein)
chain: MKITLPKPFFFEGGNRAVLLLHGFTGSSADVRMLGRYLQKHGYTSLAPQYKGHAAPPEELTKTGPADWWQDVLDGYEELKAKGYDEIAVCGLSLGGVMSLRLSMHRPVKAVIPMCAPAYIKSEDVMYAGVTEYAREFKKREGKSVDEIEQEMAVFEPMPTLKDLQALLKETRDSLEDVYAPTLVVQARNDHMINTDSANIIHDGVSALQKELIWYENSGHVITLDKEKETLHQDIHEFLDGLNWSH
notes: full-length gene in pET-28a (NheI/XhoI), N-terminal 6xHis tag, E. coli BL21(DE3); monomer; catalytic triad Ser93, Asp190, His220; motif GLSLG 91-95
For the protein B1, the Km is 0.59 mM.

These data come from publication PMC10418727, “Structural and Biochemical Insights into Bis(2-hydroxyethyl) Terephthalate Degrading Carboxylesterase Isolated from Psychrotrophic Bacterium Exiguobacterium antarcticum” (International Journal of Molecular Sciences, 2023).
